The target in one assay is in vitro translated 35S-labeled Brd4-CTD (human) (UniProt O60885).
In turn, “GST-tagged HPV16 E2 R37A (from UniProt P03120 1-365)” had a percent of Brd4 bound compared to wild type E2 of under 20%.

“GST-tagged HPV16 E2 W134A (from UniProt P03120 1-365)” had a percent of Brd4 bound compared to wild type E2 of under 20%.

The substance “GST-tagged HPV16 E2 W92A (from UniProt P03120 1-365)” displayed a percent of Brd4 bound compared to wild type E2 of under 20%.

The substance “GST-tagged HPV16 E2 W33A (from UniProt P03120 1-365)” gave a percent of Brd4 bound compared to wild type E2 of under 20%.

A further assay deals with His-Xpress-SV40NLS-HBrd41047-1362 (human) (UniProt O60885).
As for “HPV16 E2 T93A (pCMV4-16E2 mutant, expressed in C33A cells) (from UniProt P03120 1-365)”, the percent of wild type E2 binding is over 40%.

Regarding “HPV16 E2 F121A (pCMV4-16E2 mutant, expressed in C33A cells) (from UniProt P03120 1-365)”, the percent of wild type E2 binding was over 40%.

“HPV16 E2 E39A (pCMV4-16E2 mutant, expressed in C33A cells) (from UniProt P03120 1-365)” registered a percent of wild type E2 binding of over 40%.

“HPV16 E2 Y138A (pCMV4-16E2 mutant, expressed in C33A cells) (from UniProt P03120 1-365)” returned a percent of wild type E2 binding of over 40%.

As for “HPV16 E2 L79A (pCMV4-16E2 mutant, expressed in C33A cells) (from UniProt P03120 1-365)”, the percent of wild type E2 binding is over 40%.

The substance “HPV16 E2 E90A (pCMV4-16E2 mutant, expressed in C33A cells) (from UniProt P03120 1-365)” came in with a percent of wild type E2 binding of over 40%.

“HPV16 E2 K68A (pCMV4-16E2 mutant, expressed in C33A cells) (from UniProt P03120 1-365)”: the percent of wild type E2 binding is over 40%.

“HPV16 E2 W92A (pCMV4-16E2 mutant, expressed in C33A cells) (from UniProt P03120 1-365)”: the percent of wild type E2 binding is under 10%.

“HPV16 E2 R37A (pCMV4-16E2 mutant, expressed in C33A cells) (from UniProt P03120 1-365)” displayed a percent of wild type E2 binding of under 10%.

In the case of “HPV16 E2 W33A (pCMV4-16E2 mutant, expressed in C33A cells) (from UniProt P03120 1-365)”, the percent of wild type E2 binding is under 10%.

In the case of “HPV16 E2 D122A (pCMV4-16E2 mutant, expressed in C33A cells) (from UniProt P03120 1-365)”, the percent of wild type E2 binding is over 40%.

As for “HPV16 E2 Y178A (pCMV4-16E2 mutant, expressed in C33A cells) (from UniProt P03120 1-365)”, the percent of wild type E2 binding was over 40%.

These data come from patent US20060223055A1.
